Experimental findings from US20070009529A1, “Agents that dissolve arterial thrombi” (New York University, priority 2002, published 2007) are described below.

For assay [1], the system named is platelets. In words: Platelet 12(S)-HETE generation. Type of assay: cell-based. The text has this: Recombinant ADAMTS-18 was then made with the expression vector pBudCE4.1 in 293T cells. This peptide induced platelet 12(S)—HETE and oxidation/fragmentation in an identical kinetic fashion as anti-GPIIIa49-66 antibody. Both expressed rADAMTS-18, and HUVEC conditioned media ADAMTS-18 could be activated by thrombin (0.5μ/mL and then neutralized with hirudin), with optimum effect at one hour (n=4). HUVEC ADAMTS-18 induced oxidation fragmentation could be inhibited about 50% by an scFV antibody raised against the ADAMTS-18 (18-mer) peptide as well as GPIIIa49-66 peptide, as well as RGDS (GPIIIa ligand binding site) (n=7).

The test system of assay [2] is platelets. In words: Platelet oxidation/fragmentation induced independently of anti-GPIIIa49-66 (DCHF-loaded platelets). In kind it is cell-based.

B1: Recombinant ADAMTS-18: recombinant disintegrin and metalloprotease with thrombospondin-like motifs, expressed with pBudCE4.1 in 293T cells (protein, UniProt Q8TE60 285-1221, looked up)
A disintegrin and …: SAGKSQKGLNVETLVVADKKMVEKHGKGNVTTYILTVMNMVSGLFKDGTIGSDINVVVVSLILLEQEPGGLLINHHADQSLNSFCQWQSALIGKNGKRHDHAILLTGFDICSWKNEPCDTLGFAPISGMCSKYRSCTINEDTGLGLAFTIAHESGHNFGMIHDGEGNPCRKAEGNIMSPTLTGNNGVFSWSSCSRQYLKKFLSTPQAGCLVDEPKQAGQYKYPDKLPGQIYDADTQCKWQFGAKAKLCSLGFVKDICKSLWCHRVGHRCETKFMPAAEGTVCGLSMWCRQGQCVKFGELGPRPIHGQWSAWSKWSECSRTCGGGVKFQERHCNNPKPQYGGLFCPGSSRIYQLCNINPCNENSLDFRAQQCAEYNSKPFRGWFYQWKPYTKVEEEDRCKLYCKAENFEFFFAMSGKVKDGTPCSPNKNDVCIDGVCELVGCDHELGSKAVSDACGVCKGDNSTCKFYKGLYLNQHKANEYYPVVLIPAGARSIEIQELQVSSSYLAVRSLSQKYYLTGGWSIDWPGEFPFAGTTFEYQRSFNRPERLYAPGPTNETLVFEILMQGKNPGIAWKYALPKVMNGTPPATKRPAYTWSIVQSECSVSCGGGYINVKAICLRDQNTQVNSSFCSAKTKPVTEPKICNAFSCPAYWMPGEWSTCSKACAGGQQSRKIQCVQKKPFQKEEAVLHSLCPVSTPTQVQACNSHACPPQWSLGPWSQCSKTCGRGVRKRELLCKGSAAETLPESQCTSLPRPELQEGCVLGRCPKNSRLQWVASSWSECSATCGLGVRKREMKCSEKGFQGKLITFPERRCRNIKKPNLDLEETCNRRACPAHPVYNMVAGWYSLPWQQCTVTCGGGVQTRSVHCVQQGRPSSSCLLHQKPPVLRACNTNFCPAPEKREDPSCVDFFNWCHLVPQHGVCNHKFYGKQCCKSCTRKI
modifications: recombinant, 293T-expressed
notes: recombinant disintegrin and metalloprotease with thrombospondin-like motifs, expressed with pBudCE4.1 in 293T cells
For B1, the “platelet 12(S)-HETE” value in assay [1] was “induced”. Further, in assay [2] (concentration not given), the platelet oxidation/fragmentation entry was “induced”. In addition, the “time of optimum effect of activation by thrombin” value in assay [2] (thrombin 0.5μ/mL, then neutralized with hirudin, n=4) was “one”.
